# Test results as given in US20240409663A1 (CONCEPT TO MEDICINE BIOTECH, published 2024).
# Residue numbers refer to the chain shown, from its start.
# B1: 52H5D3B8-6#-VH3+VL3 (antibody, V domains shown)
# VH: QVQLVQSGAEVKKPGASVKVSCKALGYTFTDYEMHWVKQAPGQGLEWIGAIHPGSGGTAYNQKFKGRVTLTADTSTSTVYMELSSLRSEDTAVYYCTRYYSYAYWGQGTLVTVSS
# VL: DIVMTQTPLSLSVTPGQPASISCRSSQSLVHSNGNTYLQWYLQKPGQSPKLLIYKVSNRFSGVPDRFSGSGSGTDFTLKISRVEAEDVGVYYCFQSIHVPYTFGGGTKLEIK
# notes: humanized
# B2: 52H5D3B8-6#-VH4+VL4 (antibody, V domains shown)
# VH: B1 VH with V68A, L70M, T74K, S75F
# VL: B1 VL with Y92F
# notes: humanized
# B3: 52H5D3B8-6#-VH3+VL4 (antibody, V domains shown)
# VH: B1 VH
# VL: B1 VL with Y92F
# notes: humanized
# B4: 52H5D3B8-6#-VH4+VL2 (antibody, V domains shown)
# VH: B1 VH with V68A, L70M, T74K, S75F
# VL: B1 VL with K50Q, Y92F
# notes: humanized
# B5: 52H5D3B8-6#-VH4+VL1 (antibody, V domains shown)
# VH: B1 VH with V68A, L70M, T74K, S75F
# VL: B1 VL with K50Q
# notes: humanized
# B6: 52H5D3B8-6#-VH4+VL3 (antibody, V domains shown)
# VH: B1 VH with V68A, L70M, T74K, S75F
# VL: B1 VL
# notes: humanized
# B7: Hu 52H5D3B8-2 (antibody, V domains shown)
# VH: EVQLVQSGAEVKKPGASVKVSCKASGYTFTDYEMHWVRQAPGQGLEWMGAIHPGSGGTAYNQKFKGRVTMTRDTSISTAYMELSRLRSDDTAVYYCARFYSYAYWGQGTLVTVSS
# VL: B1 VL with I2V, K50Q, Y92F, F94S, L109V
# notes: humanized 52H5D3B8; also called 52H5D3B8 VH0 + VL1
# B8: Hu 52H5D3B8-5 (antibody, V domains shown)
# VH: B7 VH with R72A, A97T
# VL: B1 VL with I2V, K50Q, F94S, L109V
# notes: humanized 52H5D3B8; also called 52H5D3B8 VH2 + VL0
# B9: Hu 52H5D3B8-1 (antibody, V domains shown)
# VH: B7 VH
# VL: B1 VL with I2V, K50Q, F94S, L109V
# notes: humanized 52H5D3B8; also called 52H5D3B8 VH0 + VL0
# B10: Hu 52H5D3B8-3 (antibody, V domains shown)
# VH: B7 VH with A97T
# VL: B1 VL with I2V, K50Q, F94S, L109V
# notes: humanized 52H5D3B8; also called 52H5D3B8 VH1 + VL0
# B11: Hu 52H5D3B8-6 (antibody, V domains shown)
# VH: B7 VH with R72A, A97T
# VL: B1 VL with I2V, K50Q, Y92F, F94S, L109V
# notes: humanized 52H5D3B8; also called 52H5D3B8 VH2 + VL1
# B12: Hu 52H5D3B8-9 (antibody, V domains shown)
# VH: B7 VH with M48I, M70L, R72A, T74K, A97T
# VL: B1 VL with I2V, K50Q, F94S, L109V
# notes: humanized 52H5D3B8; also called 52H5D3B8 VH4 + VL0
# B13: Hu 52H5D3B8-4 (antibody, V domains shown)
# VH: B7 VH with A97T
# VL: B1 VL with I2V, K50Q, Y92F, F94S, L109V
# notes: humanized 52H5D3B8; also called 52H5D3B8 VH1 + VL1
# B14: 18C1D9 chimeric mAb (antibody, V domains shown)
# VH: QVQLQQSGAELVRPGASVTLSCKASGYTFSDYEMHWVKQTPVHGLEWIGAIDPETGGTAYNQKFKGKATLTADKSSSTAYMELRSLTSEDSAVYYCTRYYSYAYWGQGTLVTVSA
# VL: DVVMTQSPLSLPVSLGDQASISCRSRQSLVHSNGNTYLQWYLQKPGQSPKLLIYKVSNRFSGVPDRFSGSGSGTDFTLKISRVEAEDLGVYFCFQSIHVPYTFGGGTKLEKK
# B15: 171F9C5 chimeric mAb (antibody, V domains shown)
# VH: B14 VH with S30T, M34I, G56D, G57N, N61S, T69I
# VL: DVVMTQTPLSLPVSLGDQASISCRSSQSPVHRNGNTYLHWYLQKPGQSPKLLIFKVSNRFSGVPDRFSGSGSGTDFTLKISRVAAEDLGVYFCSQTTHVPYTFGGGTKLEIK
# B16: 163E7D12 chimeric mAb (antibody, V domains shown)
# VH: B14 VH with S30T, D52G, G57S, K63R, T69I, L70V, Y102F
# VL: B14 VL with S7T, D17G, R26S, Y54F, K111I
# B17: 172B4E9 chimeric mAb (antibody, V domains shown)
# VH: QVQLQQSGAELVRPGASVTLSCKASGYTFTDYEIHWVKQTPVHGLEWIGAIDPATGDTAYTQKFKGKAILTADTSSNTVYMELRGLTSEDSAVHFCTRFYSYAYWGQGTLVTVSA
# VL: B15 VL with P29L, R32T, N35H, H39Q, P45S, K50R, T77K, A84E, T96S
# B18: 152E9F7 chimeric mAb (antibody, V domains shown)
# VH: B17 VH with A54E, T74K, G85S, H94Y, F95Y
# VL: B14 VL with S7T, R26S, S32T, N35H, P45S, F94S, I97T, K111I
# Biological target: T1, human GPC3 on cells (human, UniProt P51654 25-554)
# T1 construct: whole, on cells; over-expressed on CHOK1 cells or endogenous on HEPG2, Hep3B and Huh-7 hepatocellular carcinoma cells; the cell line is named under assay; also called GPC3-CHOK1 cells; human GPC3 over-expressed CHOK1 cells
# Assay: FACS, HEPG2 cells
# Description: (§1) To evaluate the antigen binding property, the humanized antibodies were analyzed for their binding to human GPC3 over-expressed CHOK1 cells, HEPG2 cells, Hep3B cells and Huh-7 cells by FACS. Briefly, GPC3-CHOK1 cells, HEPG2 cells, Hep3B cells and Huh-7 cells were firstly incubated with Fc blocking reagent at 4° C. for 15 mins. Cells were washed by FACS buffer and divided to each well with 4-fold serially diluted humanized antibodies starting at 10 μg/mL at 4° C. for 60 mins. Cells were washed by FACS buffer and fixed with 2% PFA at RT for 15 mins. […] The 16 humanized antibodies were separated into two plates.
row,Binder,EC50
1,B1,0.0426 µg/mL
2,B2,0.0367 µg/mL
3,B3,0.0422 µg/mL
4,B4,0.0435 µg/mL
5,B5,0.04 µg/mL
6,B6,0.0391 µg/mL

# Biological target: T1, human GPC3 on cells
# Assay: FACS, Hep3B cells
# Description: as §1
row,Binder,EC50
1,B1,0.0682 µg/mL
2,B2,0.047 µg/mL
3,B3,0.0629 µg/mL
4,B4,0.0627 µg/mL
5,B5,0.0565 µg/mL
6,B6,0.0511 µg/mL

# Biological target: T1, human GPC3 on cells
# Assay: FACS, Huh-7 cells
# Description: as §1
row,Binder,EC50
1,B1,0.0351 µg/mL
2,B2,0.0259 µg/mL
3,B3,0.0322 µg/mL
4,B4,0.0326 µg/mL
5,B5,0.0306 µg/mL
6,B6,0.0287 µg/mL

# Biological target: T1, human GPC3 on cells
# Assay: FACS, Huh-7 cells
# Remark: another data set of the same source
# Description: as §1, with “CHOK1” for “CHOK1 cells, HEPG2 cells, Hep3B”, “GPC3-CHOK1” for “GPC3-CHOK1 cells, HEPG2 cells, Hep3B”, “As different plates might affect the EC50 of 52H5D3B8-VH+VL, the 12” for “The 16”
row,Binder,EC50
1,B7,0.0195 µg/mL
2,B8,0.0402 µg/mL
3,B9,0.0243 µg/mL
4,B10,0.0213 µg/mL
5,B11,0.0295 µg/mL
6,B12,0.0348 µg/mL
7,B13,0.0196 µg/mL

# Biological target: T1, human GPC3 on cells
# Assay: FACS, GPC3-CHOK1 cells
# Description: Cell-based binding: FACS was used to evaluate the binding activity of chimeric mAbs (18C1D9, 52H5D3B8, 163E7D12, 172B4E9, 152E9F7 and 171F9C5) with comparison to a known GPC3 antibody GC33 (Chugai Pharmaceutical) on human GPC3 over-expressed CHOK1 cells.
# Briefly, GPC3-CHOK1 cells were washed by FACS buffer and divided to each well with 3-fold serially diluted chimeric mAbs or GC33 mAb starting at 5 μg/mL at 4° C. for 40 mins. […] Samples were washed twice with FACS buffer.
row,Binder,EC50
1,B14,0.238 µg/mL
2,B15,0.142 µg/mL
3,B16,0.17 µg/mL
4,B17,0.269 µg/mL
5,B18,0.14 µg/mL

# Biological target: T1, human GPC3 on cells
# Assay: FACS, GPC3-CHOK1 cells
# Remark: another data set of the same source
# Description: as §1
row,Binder,EC50
1,B1,0.0408 µg/mL
2,B2,0.0367 µg/mL
3,B3,0.0419 µg/mL
4,B4,0.0425 µg/mL
5,B5,0.0387 µg/mL
6,B6,0.0379 µg/mL

# Biological target: T1, human GPC3 on cells
# Assay: FACS, GPC3-CHOK1 cells
# Remark: another data set of the same source
# Description: as §1, with “CHOK1” for “CHOK1 cells, HEPG2 cells, Hep3B”, “GPC3-CHOK1” for “GPC3-CHOK1 cells, HEPG2 cells, Hep3B”, “As different plates might affect the EC50 of 52H5D3B8-VH+VL, the 12” for “The 16”
row,Binder,EC50
1,B7,0.0338 µg/mL
2,B8,0.0544 µg/mL
3,B9,0.0404 µg/mL
4,B10,0.0387 µg/mL
5,B11,0.0509 µg/mL
6,B12,0.0572 µg/mL
7,B13,0.0324 µg/mL

# Biological target: T2, human GPC3-his tag protein (human, UniProt P51654 25-559, limits assumed)
# T2 construct: recombinant soluble antigen used as analyte in all Biacore runs; also called recombinant GPC3 protein; rhGPC3-His; not shown: His tag
# Assay: SPR Biacore 8K, mAb captured, affinity ranking
# Description: To evaluate antigen binding activity, the chimeric antibody's affinity was measured by Biacore 8K. A serial dilution of human GPC3-his tag protein was injected over captured chimeric antibody 52H5D3B8-6 #-VH+VL for 3 mins at a flow rate of 30 μl/min. The antigen was allowed to dissociate for 720 s. Among the multi detection doses, two concentrations with most close affinity to the chimeric antibody's affinity were chosen for the 16 humanized antibodies' affinity detection.
Binder,Kd,koff,kon
B1,0.721 nM,0.000514 s⁻¹,714000 M⁻¹ s⁻¹
B2,0.857 nM,0.000593 s⁻¹,692000 M⁻¹ s⁻¹
B3,0.725 nM,0.000516 s⁻¹,711000 M⁻¹ s⁻¹
B4,1.05 nM,0.000674 s⁻¹,642000 M⁻¹ s⁻¹
B5,1.01 nM,0.000646 s⁻¹,643000 M⁻¹ s⁻¹
B6,0.847 nM,0.000601 s⁻¹,709000 M⁻¹ s⁻¹

# Biological target: T2, human GPC3-his tag protein
# Assay: SPR Biacore 8K, mAb captured, affinity ranking
# Remark: another data set of the same source
# Description: To evaluate antigen binding activity, the chimeric antibody's affinity was measured by Biacore 8K. Two concentrations with most close affinity to the chimeric antibody's affinity were chosen for the 12 humanized antibodies' affinity detection. Human GPC3-his tag protein was injected over captured antibody for 3 mins at a flow rate of 30 μl/min. The antigen was allowed to dissociate for 720 s.
Binder,Kd,koff,kon
B7,5.71 nM,0.00163 s⁻¹,285000 M⁻¹ s⁻¹
B8,2.87 nM,0.000916 s⁻¹,319000 M⁻¹ s⁻¹
B9,6.33 nM,0.00161 s⁻¹,255000 M⁻¹ s⁻¹
B10,4.34 nM,0.00176 s⁻¹,405000 M⁻¹ s⁻¹
B11,2.94 nM,0.000961 s⁻¹,327000 M⁻¹ s⁻¹
B12,4.18 nM,0.00102 s⁻¹,244000 M⁻¹ s⁻¹
B13,4.6 nM,0.00164 s⁻¹,357000 M⁻¹ s⁻¹

# Biological target: T2, human GPC3-his tag protein
# Assay: SPR Biacore, mAb captured on CM5, GPC3-his dilution series (full kinetics)
# Description: The binding of the humanized antibodies to recombinant GPC3 protein (human GPC3-his tag) was tested by Biacore using a capture method. 52H5D3B8-6 #-V+VL, 52H5D3B8-6 #-VH1+VL1, 52H5D3B8-6 #-VH1+VL3, 52H5D3B8-6 #-V1+VL4, 52H5D3B8-6 #-VH2+VL4, 52H5D3B8-6 #-VH3+VL1, 52H5D3B8-6 #-VH3+VL3 mAbs were captured using CM5 sensor chip. A serial dilution of human GPC3-his tag protein was injected over captured antibody for 2 mins at a flow rate of […]. The antigen was allowed to dissociate for 360 s. All the experiments were carried out on a Biacore T200.
Binder,Kd,koff,kon
B1,0.898 nM,0.000538 s⁻¹,600000 M⁻¹ s⁻¹
